To fix the notation:
B1: Steroid hormone receptor ERR2, residues 100 to 176; numbered along this chain, O95718 (parent)
chain: KRLCLVCGDIASGYHYGVASCEACKAFFKRTIQGNIEYSCPATNECEITKRRRKSCQACRFMKCLKVGMLKEGVRLD

± gives the uncertainty stated by the source.

Consider 36 variants from the Human Domainome abundance scans (Beltran et al. 2025).

This data set covers variants of B1. In words: abundance fitness (aPCA) (normalised: wild type 0, dead -1); higher = more abundant; growth selection in yeast, the domain comes from the species named. The note with it: Homo sapiens.
Consider KRLCLVCGDIASGYHYGVASCEAPKAFFKRTIQGNIEYSCPATNECEITKRRRKSCQACRFMKCLKVGMLKEGVRLD [C24P], for which the abundance fitness was -1.13 ± 0.22.

Regarding KRLCLVCGDIASGYHYGVASCEAIKAFFKRTIQGNIEYSCPATNECEITKRRRKSCQACRFMKCLKVGMLKEGVRLD [C24I], the abundance fitness is -0.707 ± 0.21.

Regarding KRLCLVCGDIASGYHYGVASCEACKAFFKRTIQGNIEYSCPATNECEITKRRWKSCQACRFMKCLKVGMLKEGVRLD [R53W], the abundance fitness is -0.084 ± 0.06.

For KRLCLVCGDIASGYHYGVASCEACKAFFKRTIQGNIEYSCPATNECEITKRRPKSCQACRFMKCLKVGMLKEGVRLD [R53P], the abundance fitness was -0.069 ± 0.074.

Turning to KRLCLVCGDIASGYHYGVASCEACKAFFKRTIQGNIEYSCPATNECEITKRRYKSCQACRFMKCLKVGMLKEGVRLD [R53Y], the abundance fitness was -0.14 ± 0.13.

Consider KRLCLVCGDIASGYHYGVASCEACKAFFKRTIQGNIEYSCPATNECEITKRRRKSCWACRFMKCLKVGMLKEGVRLD [Q57W], for which the abundance fitness was -0.15 ± 0.049.

Turning to KRLCLVCGDIASGYHYGVASCEACKAFFKRTIQGNIEYSCPATNECEITKRRRKICQACRFMKCLKVGMLKEGVRLD [S55I], the abundance fitness came out at 0.344 ± 0.09.

Take KRLCLVCGDIASGYHYGVASCEACKAFFKRTIQGNIEYSCSATNECEITKRRRKSCQACRFMKCLKVGMLKEGVRLD [P41S]: the abundance fitness was -0.137 ± 0.047.

For KRLCLVCGDIASGYHYGVASCEACKAFFKRTIQGNIMYSCPATNECEITKRRRKSCQACRFMKCLKVGMLKEGVRLD [E37M], the abundance fitness was -0.654 ± 0.14.

In the case of KRLCLVCGDIASGYHYGVASCEACQAFFKRTIQGNIEYSCPATNECEITKRRRKSCQACRFMKCLKVGMLKEGVRLD [K25Q], the abundance fitness turned out to be 0.317 ± 0.045.

For KRLCLVCGDIASGYFYGVASCEACKAFFKRTIQGNIEYSCPATNECEITKRRRKSCQACRFMKCLKVGMLKEGVRLD [H15F], the abundance fitness is -0.197 ± 0.088.

Take KRLCLVCGDIASGYMYGVASCEACKAFFKRTIQGNIEYSCPATNECEITKRRRKSCQACRFMKCLKVGMLKEGVRLD [H15M]: the abundance fitness was -0.325 ± 0.089.

Consider KRLCLVCGDIAVGYHYGVASCEACKAFFKRTIQGNIEYSCPATNECEITKRRRKSCQACRFMKCLKVGMLKEGVRLD [S12V], for which the abundance fitness is 0.029 ± 0.051.

For the variant KRLCLVCGDIALGYHYGVASCEACKAFFKRTIQGNIEYSCPATNECEITKRRRKSCQACRFMKCLKVGMLKEGVRLD [S12L], the abundance fitness is -0.156 ± 0.053.

For KRLCLVCGDIASGYHYGVASCEACKAFFKRTIQGNIEYSCPATNECEITKRRRKSCQACRFMKSLKVGMLKEGVRLD [C64S], the abundance fitness was -0.396 ± 0.065.

Turning to KRLCLVCGDIASGYHDGVASCEACKAFFKRTIQGNIEYSCPATNECEITKRRRKSCQACRFMKCLKVGMLKEGVRLD [Y16D], the abundance fitness came out at 0.008 ± 0.054.

Turning to KRLCLVCGDIASGYHPGVASCEACKAFFKRTIQGNIEYSCPATNECEITKRRRKSCQACRFMKCLKVGMLKEGVRLD [Y16P], the abundance fitness is -0.355 ± 0.067.

For KRLCLVCGDIASGYHYGVASCEACKAFFKRTIQGNIEYSCPATNECEITKRRRKSCQACRFMKCLKVGMLKEMVRLD [G73M], the abundance fitness worked out at 0.007 ± 0.069.

On to KRLCLVCGDIASGYHYGVAMCEACKAFFKRTIQGNIEYSCPATNECEITKRRRKSCQACRFMKCLKVGMLKEGVRLD [S20M], for which the abundance fitness was -0.322 ± 0.066.

On to KRLCLVCGDIASGYHYGVAQCEACKAFFKRTIQGNIEYSCPATNECEITKRRRKSCQACRFMKCLKVGMLKEGVRLD [S20Q], for which the abundance fitness was -0.007 ± 0.055.

Turning to KRLCLVCGDIASGYHYGVASCEACKAFFKRTIQGNIEYSCPATNECEITKRPRKSCQACRFMKCLKVGMLKEGVRLD [R52P], the abundance fitness was -0.339 ± 0.1.

Take KRLCLVCGDIASGYHYGVASCEACKAFFKRTIQGNIEYSCPATTECEITKRRRKSCQACRFMKCLKVGMLKEGVRLD [N44T]: the abundance fitness is -0.22 ± 0.063.

For the variant KRLCLVCGDIASGYHYGVASCEACKAFFKRTIQGNIEYSCPADNECEITKRRRKSCQACRFMKCLKVGMLKEGVRLD [T43D], the abundance fitness is -0.152 ± 0.086.

Consider KRLCLVCGDIASGYHYGVASCEACKAFFKRTIQGNIEYSCPARNECEITKRRRKSCQACRFMKCLKVGMLKEGVRLD [T43R], for which the abundance fitness is 0.043 ± 0.035.

With KRLCLVCGDIASGYHYGVASCEACKAFFKRTIQGNIEYSCPATNECEITKRRRKSCQACRFMKCLKVGMLKMGVRLD [E72M], the abundance fitness is -0.448 ± 0.12.

With KRLCLVCGDRASGYHYGVASCEACKAFFKRTIQGNIEYSCPATNECEITKRRRKSCQACRFMKCLKVGMLKEGVRLD [I10R], the abundance fitness was -0.046 ± 0.044.

As for KRLCLVCGDDASGYHYGVASCEACKAFFKRTIQGNIEYSCPATNECEITKRRRKSCQACRFMKCLKVGMLKEGVRLD [I10D], the abundance fitness worked out at 0.195 ± 0.067.

KRLCLVCGDIASGYHYGVASCEACKAFFKRTIQGNIEYSCPATNECEITKRRRKSCQACRFMPCLKVGMLKEGVRLD [K63P]: the abundance fitness was -0.914 ± 0.16.

Consider KRLCLVCGDIASGEHYGVASCEACKAFFKRTIQGNIEYSCPATNECEITKRRRKSCQACRFMKCLKVGMLKEGVRLD [Y14E], for which the abundance fitness came out at 0.101 ± 0.066.

Consider KRLCLVCGDIASGYHYGVASCEACKAFFKRTIQGNIEYSCPCTNECEITKRRRKSCQACRFMKCLKVGMLKEGVRLD [A42C], for which the abundance fitness is -0.501 ± 0.1.

In the case of KRLCLVCGDIASGYHYGVASCEACKAFFKRTIQGNIEYSCPSTNECEITKRRRKSCQACRFMKCLKVGMLKEGVRLD [A42S], the abundance fitness was -0.098 ± 0.05.

Consider KRLCLVCGDIASGYHYGVASCEACKAFFKRTIEGNIEYSCPATNECEITKRRRKSCQACRFMKCLKVGMLKEGVRLD [Q33E], for which the abundance fitness was -0.03 ± 0.06.

Take KRLCHVCGDIASGYHYGVASCEACKAFFKRTIQGNIEYSCPATNECEITKRRRKSCQACRFMKCLKVGMLKEGVRLD [L5H]: the abundance fitness was -0.351 ± 0.18.

For ARLCLVCGDIASGYHYGVASCEACKAFFKRTIQGNIEYSCPATNECEITKRRRKSCQACRFMKCLKVGMLKEGVRLD [K1A], the abundance fitness is -0.34 ± 0.12.

In the case of TRLCLVCGDIASGYHYGVASCEACKAFFKRTIQGNIEYSCPATNECEITKRRRKSCQACRFMKCLKVGMLKEGVRLD [K1T], the abundance fitness is -0.177 ± 0.08.

Consider KRLCLVCGDIASGYHYGVASCEACKAFFKRTIQGNIEYSCPATNECEITKRRRKSLQACRFMKCLKVGMLKEGVRLD [C56L], for which the abundance fitness is -0.76 ± 0.085.
